Measured values published in the supplement of paper PMC10567573.

B1: NECAB1 (parent)
chain: NLDTEELCEYFSQHLGEYENVLAA

Variants of: B1
Assay: protein stability index of a GFP-peptide fusion (GPS, HEK-293T) (PSI 1-6); higher = more stable
Conditions: c terminus: a fixed tail appended
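Note: lentivirally expressed fusions sorted by FACS into six bins by GFP to DsRed ratio, PSI derived from sequencing read proportions per bin multiplied by bin number.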

Variant	protein stability index
NLDTEELCEYFSQHLGEYINVLAA [E19I]	4.56
NLDTEELCEYFSQHLGEYQNVLAA [E19Q]	2.4
NLDTEELCEYFSQHLGEYVNVLAA [E19V]	1.53
NLDTEELCEYFSQHLGEYANVLAA [E19A]	1.66
NLDTEELCEYFSQHLGEYKNVLAA [E19K]	2.67
NLDTEELCEYFSQHLGEYSNVLAA [E19S]	2.11
NLDTEELCEYFSQHLGEYCNVLAA [E19C]	1.83
NLDTEELCEYFSQHLGEYPNVLAA [E19P]	2.91
NLDTEELCEYFSQHLGEYYNVLAA [E19Y]	1.93
NLDTEELCEYFSQHLGEYRNVLAA [E19R]	1.84
NLDTEELCEYFSQHLGEYDNVLAA [E19D]	3.98
NLDTEELCEYFSQHLGEYWNVLAA [E19W]	1.82
NLDTEELCEYFSQHLGEYGNVLAA [E19G]	2.34
NLDTEELCEYFSQHLGEYMNVLAA [E19M]	2.18
NLDTEELCEYFSQHLGEYHNVLAA [E19H]	1.97
NLDTEELCEYFSQHLGEYNNVLAA [E19N]	2.87
NLDTEELCEYFSQHLGEYTNVLAA [E19T]	2.07
NLDTEELCEYFSQHLGEYFNVLAA [E19F]	1.97
NLDTEELCEYFSQHLGEYLNVLAA [E19L]	1.82
NLDTEELCEYFSQHLGEYEAVLAA [N20A]	2.03
NLDTEELCEYFSQHLGEYEVVLAA [N20V]	4.33
NLDTEELCEYFSQHLGEYESVLAA [N20S]	3.05
NLDTEELCEYFSQHLGEYEQVLAA [N20Q]	2.14
NLDTEELCEYFSQHLGEYECVLAA [N20C]	2.05

Variant	protein stability index
NLDTEELCEYFSQHLGEYELVLAA [N20L]	1.23
NLDTEELCEYFSQHLGEYERVLAA [N20R]	2.25
NLDTEELCEYFSQHLGEYEYVLAA [N20Y]	3.07
NLDTEELCEYFSQHLGEYEIVLAA [N20I]	1.59
NLDTEELCEYFSQHLGEYETVLAA [N20T]	1.78
NLDTEELCEYFSQHLGEYEPVLAA [N20P]	2.32
NLDTEELCEYFSQHLGEYEHVLAA [N20H]	2.67
NLDTEELCEYFSQHLGEYEEVLAA [N20E]	2.74
NLDTEELCEYFSQHLGEYEKVLAA [N20K]	1.94
NLDTEELCEYFSQHLGEYEFVLAA [N20F]	1.66
NLDTEELCEYFSQHLGEYEWVLAA [N20W]	2.03
NLDTEELCEYFSQHLGEYEMVLAA [N20M]	1.93
NLDTEELCEYFSQHLGEYEGVLAA [N20G]	3.22
NLDTEELCEYFSQHLGEYEDVLAA [N20D]	2.71
NLDTEELCEYFNQHLGEYENVLAA [S12N]	3.07
NLDTEELCEYFDQHLGEYENVLAA [S12D]	4
NLDTEELCEYFVQHLGEYENVLAA [S12V]	2.28
NLDTEELCEYFCQHLGEYENVLAA [S12C]	2.53
NLDTEELCEYFIQHLGEYENVLAA [S12I]	2.68
NLDTEELCEYFQQHLGEYENVLAA [S12Q]	2.55
NLDTEELCEYFHQHLGEYENVLAA [S12H]	2.88
NLDTEELCEYFKQHLGEYENVLAA [S12K]	2.09
NLDTEELCEYFEQHLGEYENVLAA [S12E]	3.83
NLDTEELCEYFGQHLGEYENVLAA [S12G]	4

Variant	protein stability index
NLDTEELCEYFMQHLGEYENVLAA [S12M]	1.98
NLDTEELCEYFLQHLGEYENVLAA [S12L]	1.92
NLDTEELCEYFRQHLGEYENVLAA [S12R]	2
NLDTEELCEYFYQHLGEYENVLAA [S12Y]	2.91
NLDTEELCEYFFQHLGEYENVLAA [S12F]	3.17
NLDTEELCEYFWQHLGEYENVLAA [S12W]	3.15
NLDTEELCEYFAQHLGEYENVLAA [S12A]	2.59
NLDTEELCEYFPQHLGEYENVLAA [S12P]	4.53
NLDTEELCEYFTQHLGEYENVLAA [S12T]	2.91
NLDTEELCEYTSQHLGEYENVLAA [F11T]	4.82
NLDTEELCEYYSQHLGEYENVLAA [F11Y]	4.33
NLDTEELCEYVSQHLGEYENVLAA [F11V]	3.9
NLDTEELCEYWSQHLGEYENVLAA [F11W]	3.85
NLDTEELCEYFSQMLGEYENVLAA [H14M]	2.98
NLDTEELCEYFSQLLGEYENVLAA [H14L]	2.09
NLDTEELCEYFSQSLGEYENVLAA [H14S]	3.81
NLDTEELCEYFSQCLGEYENVLAA [H14C]	3.63
NLDTEELCEYFSQKLGEYENVLAA [H14K]	2.73
NLDTEELCEYFSQILGEYENVLAA [H14I]	1.87
NLDTEELCEYFSQVLGEYENVLAA [H14V]	3.01
NLDTEELCEYFSQQLGEYENVLAA [H14Q]	3.35
NLDTEELCEYFSQFLGEYENVLAA [H14F]	2.02
NLDTEELCEYFSQYLGEYENVLAA [H14Y]	2.19
NLDTEELCEYFSQDLGEYENVLAA [H14D]	3.86

Variant	protein stability index
NLDTEELCEYFSQNLGEYENVLAA [H14N]	2.55
NLDTEELCEYFSQPLGEYENVLAA [H14P]	4.44
NLDTEELCEYFSQGLGEYENVLAA [H14G]	3.81
NLDTEELCEYFSQWLGEYENVLAA [H14W]	1.84
NLDTEELCEYFSQALGEYENVLAA [H14A]	3.31
NLDTEELCEYFSQELGEYENVLAA [H14E]	4.47
NLDTEELCEYFSQRLGEYENVLAA [H14R]	2.12
NLDTEELCEYFSQTLGEYENVLAA [H14T]	4.11
NLDTEELCEYFSQHWGEYENVLAA [L15W]	2.65
NLDTEELCEYFSQHPGEYENVLAA [L15P]	4.55
NLDTEELCEYFSQHVGEYENVLAA [L15V]	2.04
NLDTEELCEYFSQHMGEYENVLAA [L15M]	3.07
NLDTEELCEYFSQHTGEYENVLAA [L15T]	3.28
NLDTEELCEYFSQHQGEYENVLAA [L15Q]	4
NLDTEELCEYFSQHAGEYENVLAA [L15A]	3.36
NLDTEELCEYFSQHGGEYENVLAA [L15G]	4.38
NLDTEELCEYFSQHDGEYENVLAA [L15D]	4.63
NLDTEELCEYFSQHFGEYENVLAA [L15F]	2.94
NLDTEELCEYFSQHHGEYENVLAA [L15H]	3.91
NLDTEELCEYFSQHCGEYENVLAA [L15C]	2.92
NLDTEELCEYFSQHYGEYENVLAA [L15Y]	2.93
NLDTEELCEYFSQHSGEYENVLAA [L15S]	3.47
NLDTEELCEYFSQHKGEYENVLAA [L15K]	4.02
NLDTEELCEYFSQHIGEYENVLAA [L15I]	1.97

Variant	protein stability index
NLDTEELCEYFSQHNGEYENVLAA [L15N]	4.48
NLDTEELCEYFSQHRGEYENVLAA [L15R]	3.1
NLDTEELCEYFSQHEGEYENVLAA [L15E]	4.45
NLDTEELCEYFSQHLGWYENVLAA [E17W]	2.11
NLDTEELCEYFSQHLGDYENVLAA [E17D]	2.88
NLDTEELCEYFSQHLGQYENVLAA [E17Q]	1.66
NLDTEELCEYFSQHLGPYENVLAA [E17P]	2.64
NLDTEELCEYFSQHLGAYENVLAA [E17A]	2.12
NLDTEELCEYFSQHLGVYENVLAA [E17V]	2.33
NLDTEELCEYFSQHLGGYENVLAA [E17G]	2.81
NLDTEELCEYFSQHLGLYENVLAA [E17L]	2.62
NLDTEELCEYFSQHLGTYENVLAA [E17T]	2.51
NLDTEELCEYFSQHLGRYENVLAA [E17R]	2.76
NLDTEELCEYFSQHLGNYENVLAA [E17N]	2.14
NLDTEELCEYFSQHLGCYENVLAA [E17C]	2.31
NLDTEELCEYFSQHLGSYENVLAA [E17S]	2.99
NLDTEELCEYFSQHLGFYENVLAA [E17F]	2.33
NLDTEELCEYFSQHLGMYENVLAA [E17M]	2.17
NLDTEELCEYFSQHLGIYENVLAA [E17I]	2.84
NLDTEELCEYFSQHLGKYENVLAA [E17K]	1.34
NLDTEELCEYFSQHLGHYENVLAA [E17H]	1.54
NLDTEELCEYFSQHLGYYENVLAA [E17Y]	2.65
NLDTEELCEYFSQHLGEEENVLAA [Y18E]	5.13
NLDTEELCEYFSQHLGEHENVLAA [Y18H]	4.47

Variant	protein stability index
NLDTEELCEYFSQHLGELENVLAA [Y18L]	2.3
NLDTEELCEYFSQHLGECENVLAA [Y18C]	4.03
NLDTEELCEYFSQHLGERENVLAA [Y18R]	4.21
NLDTEELCEYFSQHLGENENVLAA [Y18N]	4.27
NLDTEELCEYFSQHLGEGENVLAA [Y18G]	4.46
NLDTEELCEYFSQHLGEAENVLAA [Y18A]	4.2
NLDTEELCEYFSQHLGEQENVLAA [Y18Q]	4.61
NLDTEELCEYFSQHLGEIENVLAA [Y18I]	2.07
NLDTEELCEYFSQHLGETENVLAA [Y18T]	4.37
NLDTEELCEYFSQHLGEKENVLAA [Y18K]	4.71
NLDTEELCEYFSQHLGEFENVLAA [Y18F]	2.31
NLDTEELCEYFSQHLGEMENVLAA [Y18M]	3.6
NLDTEELCEYFSQHLGEDENVLAA [Y18D]	5.13
NLDTEELCEYFSQHLGEPENVLAA [Y18P]	4.28
NLDTEELCEYFSQHLGEWENVLAA [Y18W]	1.8
NLDTEELCEYFSQHLGESENVLAA [Y18S]	4.56
NLDTEELCEYFSQHLGEVENVLAA [Y18V]	3.14
NLDTEELCEYFSQHLREYENVLAA [G16R]	1.78
NLDTEELCEYFSQHLIEYENVLAA [G16I]	2.14
NLDTEELCEYFSQHLNEYENVLAA [G16N]	1.95
NLDTEELCEYFSQHLYEYENVLAA [G16Y]	1.58
NLDTEELCEYFSQHLKEYENVLAA [G16K]	1.81
NLDTEELCEYFSQHLMEYENVLAA [G16M]	1.99
NLDTEELCEYFSQHLLEYENVLAA [G16L]	1.9

Variant	protein stability index
NLDTEELCEYFSQHLTEYENVLAA [G16T]	2.04
NLDTEELCEYFSQHLHEYENVLAA [G16H]	1.48
NLDTEELCEYFSQHLWEYENVLAA [G16W]	2.29
NLDTEELCEYFSQHLCEYENVLAA [G16C]	1.88
NLDTEELCEYFSQHLDEYENVLAA [G16D]	2.29
NLDTEELCEYFSQHLFEYENVLAA [G16F]	2.27
NLDTEELCEYFSQHLPEYENVLAA [G16P]	2.03
NLDTEELCEYFSQHLQEYENVLAA [G16Q]	2.71
NLDTEELCEYFSQHLVEYENVLAA [G16V]	2.07
NLDTEELCEYFSQHLSEYENVLAA [G16S]	2.48
NLDTEELCEYFSQHLEEYENVLAA [G16E]	2.04
NLDTEELCEYFSQHLAEYENVLAA [G16A]	2.24
NLDTEELCEYFSQHLGEYENPLAA [V21P]	4.46
NLDTEELCEYFSQHLGEYENMLAA [V21M]	1.88
NLDTEELCEYFSQHLGEYENGLAA [V21G]	4.32
NLDTEELCEYFSQHLGEYENDLAA [V21D]	4.86
NLDTEELCEYFSQHLGEYENHLAA [V21H]	3.14
NLDTEELCEYFSQHLGEYENELAA [V21E]	4.2
NLDTEELCEYFSQHLGEYENNLAA [V21N]	4.05
NLDTEELCEYFSQHLGEYENKLAA [V21K]	2.07
NLDTEELCEYFSQHLGEYENCLAA [V21C]	3.01
NLDTEELCEYFSQHLGEYENALAA [V21A]	2.9
NLDTEELCEYFSQHLGEYENLLAA [V21L]	2.76
NLDTEELCEYFSQHLGEYENFLAA [V21F]	2.08

Variant	protein stability index
NLDTEELCEYFSQHLGEYENILAA [V21I]	1.83
NLDTEELCEYFSYHLGEYENVLAA [Q13Y]	2.2
NLDTEELCEYFSNHLGEYENVLAA [Q13N]	2.89
NLDTEELCEYFSEHLGEYENVLAA [Q13E]	2.83
NLDTEELCEYFSMHLGEYENVLAA [Q13M]	2.06
NLDTEELCEYFSAHLGEYENVLAA [Q13A]	2.5
NLDTEELCEYFSGHLGEYENVLAA [Q13G]	3.3
NLDTEELCEYFSTHLGEYENVLAA [Q13T]	3.27
NLDTEELCEYFSWHLGEYENVLAA [Q13W]	2.1
NLDTEELCEYFSCHLGEYENVLAA [Q13C]	2.06
NLDTEELCEYFSPHLGEYENVLAA [Q13P]	3.71
NLDTEELCEYFSHHLGEYENVLAA [Q13H]	2.32
NLDTEELCEYFSSHLGEYENVLAA [Q13S]	2.87
NLDTEELCEYFSIHLGEYENVLAA [Q13I]	2.19
NLDTEELCEYFSVHLGEYENVLAA [Q13V]	2.7
NLDTEELCEYFSKHLGEYENVLAA [Q13K]	2.36
NLDTEELCEYFSDHLGEYENVLAA [Q13D]	4.13
NLDTEELCEYFSRHLGEYENVLAA [Q13R]	3.25
NLDTEELCEYFSLHLGEYENVLAA [Q13L]	2.08
NLDTEELCEYFSFHLGEYENVLAA [Q13F]	2.27
